Legend:
recombinant human IL-6 [1] = molecular target: T1, recombinant human IL-6 (human, UniProt P05231 30-212); experiment: cell-based or functional assay
recombinant human IL-6 [2] = molecular target: T1, recombinant human IL-6; experiment: SPR (BIAcore 2000, 25 C); cCLB8 captured on anti-human Fc, IL-6 as analyte; 1:1 model
Procedure: (§1) An anti-human Fc (1.8 mg/ml) was diluted to a concentration of 50 μg/ml in NaOAc buffer (10 mM, pH 4.8) and coupled to the carboxymethylated dextran matrix of a CM-5 sensor chip using the manufacturer's amine-coupling chemistry as described in the BIAcore systems manual. Using the surface preparation wizard aiming for 10000 RU, the carboxyl groups on the sensor surfaces were first activated with NHS/EDC followed by the addition of the anti-human Fc. The remaining activated groups were blocked by the injection of 1M ethanolamine. Each of the flow cells was coupled individually. Employing these conditions, the four flow cell surfaces containing 7554-9571 resonance units (RU) of anti-human Fc were prepared. In preliminary experiments, it was determined that three injections (15 ul at 30 μl/min) 100mM H3PO4/0.05% CHAPS would efficiently remove the bound immunoglobulin and preserve the binding capacity of the immobilized anti-human Fc.
(§2) Two experiments were performed on the BIAcore 2000 at 25 °C and a flow rate of 30 μL/min. cCLB8 was dissolved in HBS at 5 ug/ml. […] A designated amount of antibody was flowed over its respective flow cell followed by injections of 30 μl of each IL-6 concentration at 30 μl/min (association phase) and an uninterrupted 800 seconds of buffer flow (dissociation phase). The surface of the chip was regenerated by three sequential injections of 15 μl each with 100 mM H3PO4/0.05% CHAPS. The injections of HBS serve as a reference (blank sensogram) for the subtraction of bulk refractive indices for analysis. Using the 1:1 model in BIAanalysis 3.0, a local fit was done for both dissociation (kd, [s−1] and association (ka, [M-1s−1]) and the dissociation constant (KD, [M]) calculated (kd/ka).
(§3) Analysis was done using BIAevaluation version 3.0. Kinetic constants were derived from sensogram data by fitting the experimental curves to the rate equations derived from models of the interaction mechanism. A global analysis using a 1:1 binding model with local RUmax fit, the ka, kd, KD were determined (Table 1).

recombinant human IL-6 [3] = molecular target: T1, recombinant human IL-6; experiment: SPR (BIAcore 2000, 25 C); cCLB8 captured on anti-human Fc, IL-6 as analyte; 1:1 model; second experiment
Procedure: as §1, §2, §3

recombinant human IL-6 [4] = molecular target: T1, recombinant human IL-6; experiment: solid phase EIA, plate coated with recombinant human IL-6 at 1 µg/mL, detection with HRP goat anti-human IgG, OD 490
Procedure: A solid phase EIA was used to assess binding characteristics of cCLB8 Mab to human IL-6. Briefly, plates were coated with recombinant human IL-6 (RDI) at 1 μg/mL in PBS overnight at 4° C. After washing in 0.15M saline containing 0.02% (v/v) Tween 20, the wells were blocked with 1% (w/v) BSA in PBS, 200 μL/well for 1 hour at RT. Purified antibody was incubated in two-fold serial dilutions from a starting concentration of 5 μg/mL for 1 hour at 37° C. The plate was washed and then probed with 50 μL/well HRP-labeled goat anti-human IgG (Tago) diluted 1:20,000 in 1% BSA-PBS for 1 hour at RT. The plate was again washed and 100 μL/well of the citrate-phosphate substrate solution (0.1 M citric acid and 0.2M sodium phosphate, 0.01% H₂O₂ and 1 mg/mL OPD) was added for 15 minutes at RT. Stop solution (4N sulfuric acid) was then added at 25 μL/well and the absorption at 490 nm quantitated using an automated plate photometer.

B1: chimeric CLB8 anti-human IL-6 monoclonal antibody (antibody, IgG1, V domains shown)
VH: EVQLVESGGKLLKPGGSLKLSCAASGFTFSSFAMSWFRQSPEKRLEWVAEISSGGSYTYYPDTVTGRFTISRDNAKNTLYLEMSSLRSEDTAMYYCARGLWGYYALDYWGQGTSVTVSS
VL: QIVLIQSPAIMSASPGEKVTMTCSASSSVSYMYWYQQKPGSSPRLLIYDTSNLASGVPVRFSGSGSGTSYSLTISRMEAEDAATYYCQQWSGYPYTFGGGTKLEIK
notes: Murine CLB-8 variable regions joined to human constant regions; IgG1 and kappa are named only as preferred; also called anti-IL-6 cCLB-8 antibody; CNTO 328
EC50 of inhibition of IL-6 induced 7TD1 cell proliferation (luminescent ATP assay) (recombinant human IL-6 [1]): 7.2 ng/mL | Kd (recombinant human IL-6 [2]): 57 pM | koff (recombinant human IL-6 [2]): 6.2e-05 s⁻¹ | kon (recombinant human IL-6 [2]): 1.1e+06 M⁻¹ s⁻¹ | Kd (recombinant human IL-6 [3]): 140 pM | koff (recombinant human IL-6 [3]): 5.2e-05 s⁻¹ | kon (recombinant human IL-6 [3]): 370000 M⁻¹ s⁻¹ | EC50 (read off the curve) (recombinant human IL-6 [4]): ~4 ng/mL

Source: patent US20070292420A1 (Janssen / Centocor, published 2007)
